Laboratory results taken from US20200332017A1 (SALUBRIS CHENGDU BIOTECH, published 2020).
One block for each binder: values may come before it.

Tests used:
[1] = biological target: T1, full length human CD40 (uniprot # P25942-1) on the membrane of 293T-CD40 cells (human, UniProt P25942 21-277); assay: cell-based or functional assay
[2] = biological target: T1, full length human CD40 (uniprot # …); assay: cell-based or functional assay; remark: listed apart in the source
[3] = biological target: T1, full length human CD40 (uniprot # …); assay: flow cytometry on 293T-CD40 cells
Description: (§1) 2×10⁵ cells per well in 96 well-plates were incubated with the mouse anti-CD40 antibodies or the controls of various concentrations in FACS buffer for 40 minutes on ice. […] Following an incubation of 40 minutes at 4° C. in dark, cells were washed three times and resuspended in FACS buffer. Fluorescence was measured using a Becton Dickinson FACS Canto II-HTS equipment and plotted against antibody concentration.

[4] = biological target: T2, human CD40-Fc protein (amino acid residue 21-193 of SEQ ID NO: 67 linked to N-terminus of amino acid residue … (human, biotin-labeled in the capture ELISA and in the benchmark blocking ELISA; unlabeled when coated in the ligand blocking ELISA); assay: capture ELISA, biotin human CD40-Fc; mAb at 400 ng/mL
T2 construct: also called biotin-labeled human CD40-Fc; human CD40-Fc-biotin
Description: (§2) Plates were washed 4 times with wash buffer (PBS+0.05% Tween-20, PBST) and then blocked with 200 μl/well blocking buffer (5% w/v non-fatty milk in PBST) for 2 hours at 37° C. […] After a final wash, plates were incubated with 100 μl/well ELISA substrate TMB (Innoreagents, Cat # TMB-S-002). The reaction was stopped in 15 minutes at 25° C. with 50 μl/well 1M H₂SO₄, and the absorbance was read at 450 nm and plotted against antibody concentration. Data were analyzed using Graphpad Prism software and EC₅₀ values were reported.

[5] = biological target: T3, Human CD40-his protein (Acro biosystems, Cat # CD0-H5228) (human, UniProt P25942 21-193); assay: SPR, Biacore T200; antibody captured, antigen flowed; 1:1 Langmuir fit
T3 construct: Bought reagent; not shown: his tag
Text: (§3) Briefly, goat anti-mouse IgG (GE healthcare, Cat # BR100838, Mouse Antibody Capture Kit) was covalently linked to a CM5 or a Protein G chip (carboxy methyl dextran coated chip) via primary amines, using a standard amine coupling kit provided by Biacore (GE healthcare, Pittsburgh, Pa., USA). Un-reacted moieties on the biosensor surface were blocked with ethanolamine. […] Then, human CD40-his (Acro biosystems, Cat # CD0-H5228) or cynomolgus monkey CD40-his protein (Acro biosystems, Cat # CD0-052H6) in HBS EP buffer (provided by Biacore) was flowed onto the chip at a flow rate of 30 μL/min. The antigen-antibody association kinetics was followed for 2 minutes and the dissociation kinetics was followed for 10 minutes. The association and dissociation curves were fit to a 1:1 Langmuir binding model using BIA evaluation software.

[6] = biological target: T4, cynomolgus monkey CD40-his protein (Acro biosystems, Cat # CD0-052H6) (cynomolgus monkey, UniProt G7PG38 21-193); assay: as above
T4 construct: Bought reagent; also called Cynomolgus CD40-his
Text: as §3

[7] = biological target: T2, human CD40-Fc protein (amino acid …); assay: competitive ELISA; coated human CD40-Fc, competitor biotin human CD40L-his
Description: (§4) Briefly, human CD40-Fc proteins (amino acid residue 21-193 of SEQ ID NO: 67 linked to N-terminus of amino acid residue 99-330 of SEQ ID NO.: 24) were coated on 96-well micro plates at 2 μg/mL in coating buffer (PBS) and incubated overnight at 4° C. The next day, plates were washed with wash buffer (PBS+0.05% Tween-20, PBST), and blocked with 5% w/v non-fatty milk in PBST for 2 hours at 37° C. Plates were then washed again using wash buffer.
(§5) Serially diluted the mouse anti-CD40 antibodies of the present invention or the controls (starting at 200 nM with a four-fold serial dilution) in 2.5% w/v non-fatty milk in PBST were prepared to the plates and incubated with the human CD40-Fc proteins at room temperature for 40 minutes. […] Plates were washed again. 100 μl/well of streptavidin conjugated HRP was added and incubated for 40 minutes at 37° C. Plates were washed again using wash buffer. Finally, TMB was added and the reaction was stopped using 1M H₂SO₄, and the absorbance was read at 450 nm. Data were analyzed using Graphpad Prism software and IC₅₀ values were reported.

[8] = biological target: T1, full length human CD40 (uniprot # …); assay: flow cytometry on 293T-CD40 cells, PE-labeled secondary antibody, MFI
Description: as §1

[9] = biological target: T2, human CD40-Fc protein (amino acid …); assay: ligand blocking ELISA: human CD40-Fc coated, antibody titrated, then biotin-labeled human CD40L-his (blocked ligand), streptavidin-HRP, OD(450-630)
Description: as §4, §5

[10] = biological target: T3, Human CD40-his protein (Acro …); assay: SPR, Biacore; antibody captured, human CD40-his flowed
Text: as §3

[11] = biological target: T2, human CD40-Fc protein (amino acid …); assay: capture ELISA; antibody captured, biotin-labeled human CD40-Fc in solution
Description: as §2

[12] = biological target: T2, human CD40-Fc protein (amino acid …); assay: capture ELISA (antibody captured on coated goat anti-human IgG F(ab')2, biotin-labeled human CD40-Fc in solution, streptavidin-HRP, OD(450-630))

- Cell-based Reporter assay (EC50, nM) [1]: 3.65 nM
- cell based functional assay (EC50, nM) [2]: 2.51 nM
- EC50 [3]: 0.538 nM
- absorbance at 450 nm [4]: 1.69 OD450
- Kd [5]: 0.217 nM
- koff [5]: 0.000542 s⁻¹
- kon [5]: 2.49e+06 M⁻¹ s⁻¹
- Kd [6]: 0.486 nM
- koff [6]: 0.00119 s⁻¹
- kon [6]: 2.45e+06 M⁻¹ s⁻¹
- IC50 [7]: 5.19 nM
- EC50 (read off the curve) [8]: ~0.5 nM
- IC50 (read off the curve) [9]: ~5 nM
B1: mouse anti-CD40 monoclonal antibody C1C1 (antibody, V domains shown)
VH: EVKLVESGGGLVKPGASLKLSCAASGFTFSNYGMSWVRQNSDKRLEWVASISSGGDDTYYPDNVKGRCTISRENAKNTLYLEMSSLKTEDTALYYCTRAGGKAMDYWGQGTSVTVST
VL: DIVLTQSPATLSVIPGNSVSLSCRASQSIRDNLHWYQQKSHESPRLLINYASQSISGIPSRFSGSGSGTDFTLTINSVETEDFGIYFCQQFNSWPLTFGGGTKLELK
notes: those are used here for the chimeric antibody only; also called Mouse C1C1; mouse C1C1

- cell based functional assay (EC50, nM) [2]: 3.28 nM
- absorbance at 450 nm [4]: 1.79 OD450
- Kd [10]: 7.09 nM
- koff [10]: 0.00575 s⁻¹
- kon [10]: 810000 M⁻¹ s⁻¹
- EC50 [11]: 0.236 nM
- EC50 (read off the curve) [12]: ~0.03 µg/mL
B2: chimeric antibody C1C1 (antibody, human IgG1, kappa, V domains shown)
VH: B1 VH
VL: DIVLTQSPATLSVIPGNSVSLSCRASQSIRDNLHWYQQKSHESPRLLINYASQSISGIPSRFSGSGSGTDFTLTINSVETEDFGIYFCQQFNSWPLTFGGGTKLELKR
notes: also called chC1C1; chimeric C1C1
